These results are taken from patent US20180073027, “CD117 Ligand-Drug Conjugates For Targeted Cancer Therapy” (THE METHODIST HOSPITAL SYSTEM, published 2018).

For the data set, the target named is CD117 (KIT, c-Kit) (UniProt P10721 P10721:26-976). Put plainly: flow; HEL cells, room temperature 30 min; no binding to CD117-negative CA46, U937, MDA-MB-468, LNCaP cells. Conditions: tags: endogenous on HEL AML cell line (ATCC) or primary AML marrow cells; label: 5'-Cy3; G4.
Chain of CD117 (KIT, c-Kit) (P10721 26-976, one chain of several): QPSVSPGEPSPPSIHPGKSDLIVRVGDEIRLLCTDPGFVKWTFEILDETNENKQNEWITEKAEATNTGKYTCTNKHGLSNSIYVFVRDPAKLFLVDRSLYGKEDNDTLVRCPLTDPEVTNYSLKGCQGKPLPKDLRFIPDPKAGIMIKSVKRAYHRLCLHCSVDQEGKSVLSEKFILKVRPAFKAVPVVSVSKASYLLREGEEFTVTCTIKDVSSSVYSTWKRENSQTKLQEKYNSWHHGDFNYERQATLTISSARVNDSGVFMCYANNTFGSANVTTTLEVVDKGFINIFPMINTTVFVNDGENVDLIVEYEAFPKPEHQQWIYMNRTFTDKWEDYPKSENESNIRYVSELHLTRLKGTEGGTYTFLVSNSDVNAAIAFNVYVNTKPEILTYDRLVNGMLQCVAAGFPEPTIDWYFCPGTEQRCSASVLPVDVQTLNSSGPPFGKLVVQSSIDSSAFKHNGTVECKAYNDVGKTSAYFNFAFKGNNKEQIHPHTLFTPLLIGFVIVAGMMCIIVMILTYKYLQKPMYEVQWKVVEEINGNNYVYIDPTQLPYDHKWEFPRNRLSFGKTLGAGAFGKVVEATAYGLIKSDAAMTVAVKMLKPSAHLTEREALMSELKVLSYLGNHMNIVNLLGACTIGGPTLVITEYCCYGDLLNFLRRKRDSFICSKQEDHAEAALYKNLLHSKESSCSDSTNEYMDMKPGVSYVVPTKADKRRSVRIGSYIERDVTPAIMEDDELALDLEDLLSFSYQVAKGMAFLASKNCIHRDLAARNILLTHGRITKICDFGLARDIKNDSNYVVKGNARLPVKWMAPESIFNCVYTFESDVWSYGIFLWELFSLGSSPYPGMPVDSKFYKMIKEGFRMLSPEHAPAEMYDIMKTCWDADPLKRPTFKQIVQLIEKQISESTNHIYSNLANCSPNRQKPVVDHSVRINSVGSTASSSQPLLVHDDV

B1: CD117 aptamer #1F (full length) (ssDNA)
DNA: GAGGCATACCAGCTTATTCAAGGGGCCGGGGCAAGGGGGGGGTACCGTGGTAGGACATAGTAAGTGCAATCTGCGAA
A word on the Kd: it is a measure of binding affinity in units of concentration. A higher Kd goes with lower affinity. The molecule B1 showed a dissociation constant (Kd) of 6.3 nM.
